The record followed here is patent US20250025478.

One data set concerns the target 6×His-CYLD (UniProt Q9NQC7).
Another data set addresses GST-SPATA2 (UniProt Q9UM82).

Chain of GST-SPATA2 (Q9UM82 whole entry): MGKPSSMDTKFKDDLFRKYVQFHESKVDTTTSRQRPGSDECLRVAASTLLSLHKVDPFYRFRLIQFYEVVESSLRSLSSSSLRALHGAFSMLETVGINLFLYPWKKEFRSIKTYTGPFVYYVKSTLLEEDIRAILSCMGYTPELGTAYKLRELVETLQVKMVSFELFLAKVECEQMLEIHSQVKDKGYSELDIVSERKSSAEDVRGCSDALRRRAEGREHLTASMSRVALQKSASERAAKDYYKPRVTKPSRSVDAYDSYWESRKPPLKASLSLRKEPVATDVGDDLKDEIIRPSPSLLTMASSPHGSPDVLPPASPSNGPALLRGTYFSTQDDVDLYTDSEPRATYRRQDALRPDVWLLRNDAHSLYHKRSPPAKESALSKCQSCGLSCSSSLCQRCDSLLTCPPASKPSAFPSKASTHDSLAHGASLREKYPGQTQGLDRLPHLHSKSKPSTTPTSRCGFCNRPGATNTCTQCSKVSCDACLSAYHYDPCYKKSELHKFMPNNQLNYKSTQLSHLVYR
Chain of 6×His-CYLD (Q9NQC7 whole entry): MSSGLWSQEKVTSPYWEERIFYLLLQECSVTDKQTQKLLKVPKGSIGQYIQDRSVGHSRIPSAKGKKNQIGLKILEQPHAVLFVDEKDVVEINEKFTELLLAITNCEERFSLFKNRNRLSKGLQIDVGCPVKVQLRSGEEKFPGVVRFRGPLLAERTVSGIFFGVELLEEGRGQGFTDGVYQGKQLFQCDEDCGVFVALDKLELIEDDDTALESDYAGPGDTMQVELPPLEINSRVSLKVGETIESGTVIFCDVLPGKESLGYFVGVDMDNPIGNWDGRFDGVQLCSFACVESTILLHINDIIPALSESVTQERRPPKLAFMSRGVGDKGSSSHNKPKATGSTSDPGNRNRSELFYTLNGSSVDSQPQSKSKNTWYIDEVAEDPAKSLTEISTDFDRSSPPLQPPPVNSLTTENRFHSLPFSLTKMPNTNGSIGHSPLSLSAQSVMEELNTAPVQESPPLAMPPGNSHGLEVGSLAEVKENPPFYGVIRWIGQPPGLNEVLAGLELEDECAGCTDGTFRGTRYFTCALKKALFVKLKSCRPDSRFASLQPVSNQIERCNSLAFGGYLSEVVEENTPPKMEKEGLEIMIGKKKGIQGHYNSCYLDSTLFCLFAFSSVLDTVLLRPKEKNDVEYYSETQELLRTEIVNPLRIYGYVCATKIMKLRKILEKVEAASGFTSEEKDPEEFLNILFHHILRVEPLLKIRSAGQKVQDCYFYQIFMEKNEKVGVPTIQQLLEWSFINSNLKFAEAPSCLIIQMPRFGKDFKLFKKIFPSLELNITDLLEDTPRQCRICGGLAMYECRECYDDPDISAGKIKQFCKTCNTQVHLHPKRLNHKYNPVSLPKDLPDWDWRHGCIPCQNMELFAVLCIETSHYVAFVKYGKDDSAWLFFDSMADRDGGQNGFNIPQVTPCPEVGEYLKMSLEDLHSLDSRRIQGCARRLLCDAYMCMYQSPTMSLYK

Turning to 3×-FLAG-RNF213, the “in vitro ubiquitylation assay (UBE1, UBE2L3, HA-Ub)” value (“in vitro ubiquitylation assay” for short) is “SPATA2 and CYLD, when tested alone or in equimolar concentrations, were ubiquitinated by 3×FLAG-RNF213” with 6×His-CYLD; “SPATA2 and CYLD, when tested alone or in equimolar concentrations, were ubiquitinated by 3×FLAG-RNF213” with GST-SPATA2. In the case of 3×-FLAG-RNF213^H4014A, the “in vitro ubiquitylation assay” value in the data set with 6×His-CYLD and with GST-SPATA2 was “both proteins showed increased ubiquitylation when the RING mutant RNF213^H4014A (RING-dead) was assayed (compared with WT RNF213)” each time. As for 3×-FLAG-RNF213^H4014A/H4509A, the “in vitro ubiquitylation assay” value in the data set with 6×His-CYLD and with GST-SPATA2 was “RING/RZ-dead was unable to ubiquitylate CYLD/SPATA2” in each case. In the case of 3×-FLAG-RNF213^H4509A, the “in vitro ubiquitylation assay” value with 6×His-CYLD and with GST-SPATA2 was “There was no significant ubiquitylation of CYLD or SPATA2 when an RZ mutant ("RZ-dead") form of RNF213 (RNF213^H4509A) was tested” throughout. Turning to recombinant GST-PTP1B, the “in vitro dephosphorylation of ABL1-phosphorylated RNF213” value in the data set on 3×-FLAG-RNF213 is “GST-PTP1B dephosphorylated ABL1-phosphorylated RNF213”.
